Test results reported in US20240343799A1 (Innovent, published 2024).

T1: CD79b on the surface of B-cell non-Hodgkin's lymphoma cells (human, UniProt P40259 29-229)
T1 construct: whole, on cells; Endogenous CD79b of the cell lines; on cells it stands in the B cell receptor complex with CD79a; also called CD79b on Ramos cells; CD79b on BJAB cells
T1 sequence (looked up): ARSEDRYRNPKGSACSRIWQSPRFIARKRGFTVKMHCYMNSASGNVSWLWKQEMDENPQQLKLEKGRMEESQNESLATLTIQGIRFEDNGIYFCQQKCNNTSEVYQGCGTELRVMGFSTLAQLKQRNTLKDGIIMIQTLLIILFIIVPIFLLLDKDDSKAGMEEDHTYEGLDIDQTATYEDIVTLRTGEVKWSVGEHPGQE

T2: human CD79b (recombinant antigen in the ForteBio assays) (human, UniProt P40259 29-159)
T2 construct: the immunogen was CD79b protein from Sino, Cat #29750-H08H; also called huCD79b
T2 sequence (looked up): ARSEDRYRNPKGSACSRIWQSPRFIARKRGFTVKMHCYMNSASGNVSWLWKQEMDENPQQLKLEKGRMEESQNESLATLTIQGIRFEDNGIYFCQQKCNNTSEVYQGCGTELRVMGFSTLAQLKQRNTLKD


Tests used:
[1] = target: T1, CD79b on the surface of B-cell …; test: flow cytometry on BJAB cells, goat anti-human IgG PE
Protocol: (§1) Ramos (ATCC, Cat #CRL-1596) and BJAB (AddexBio, USA, Cat #C0003016) were passaged according to the conventional procedures. Cells were counted after centrifugation and resuspension, adjusted to a density of 4×10⁶ cells/mL, poured into a loading tank, and seeded to a 96-well plate at 50 μL/well using a multichannel pipettor. 50 μL of the antibody sample diluted in gradient was added to the 50 μL of cells in each well, and the mixture was then incubated in an incubator at 5% CO₂ and 37° C. for 30 min. The mixture was centrifuged at 400 g for 5 min, then 200 μL of PBS was added, and the resulting mixture was centrifuged at 400 g for 5 min. This procedure was repeated 3 times. Goat anti-human IgG PE (1:200) was added, and the mixture was incubated for 30 min in the dark at room temperature. The mixture was washed with 200 μL of PBS twice, centrifuged, and then resuspended in 100 μL of PBS, and the values were read using a flow cytometer. The values were fitted to obtain a curve and EC₅₀ values were calculated.
(§2) The binding of the humanized antibodies to Ramos and BJAB cells was detected by flow cytometry. The assay was the same as in Example 4. The binding of the humanized antibodies to CD79b on the surface of Ramos cells is shown in FIG. 3; the binding of the humanized antibodies to CD79b on the surface of BJAB cells is shown in FIG. 4.

[2] = target: T2, human CD79b (recombinant antigen in the …); test: BLI (ForteBio), antibody loaded on sensor, antigen in solution
Protocol: (§3) Briefly, an AMQ (Pall, 1506091) sensor was equilibrated offline in an assay buffer for 30 min and then equilibrated online for 60 s to establish a baseline. The purified antibodies obtained as described above were each loaded online onto an AHQ sensor (ForteBio) for the ForteBio affinity assay. The sensor with the loaded antibody was then exposed to antigen CD79b before transferring the sensor to the assay buffer to measure the dissociation rate. The KD values were analyzed using ForteBio analysis software.
The equilibrium dissociation constants (KD) for the binding of the humanized antibodies of the present invention to human CD79b were determined by ForteBio.

[3] = target: T1, CD79b on the surface of B-cell …; test: flow cytometry on Ramos cells, goat anti-human IgG PE
Protocol: as §1, §2

[4] = target: T2, human CD79b (recombinant antigen in the …); test: BLI (ForteBio), antibody loaded on sensor, antigen in solution; remark: listed apart in the source
Protocol: The equilibrium dissociation constants (KD) for binding of the antibodies of the present invention to CD79b were determined by bio-layer interferometry (ForteBio). A ForteBio affinity assay of prior art was performed (Estep, P., et al., “High throughput solution Based measurement of antibody-antigen affinity and epitope binning”, MAbs, 2013.5 (2): 270-8).
as §3

[5] = target: T2, human CD79b (recombinant antigen in the …); test: BLI (ForteBio)

EC50 (read off the curve) [1] [nM]	Kd [2] [nM]	EC50 (read off the curve) [3] [nM]	Kd [4] [nM]	Kd [5] [nM]	Binder
~4	1.35	~5	–	–	hz11G10.9.p1 (antibody, V domains shown, Humanized monospecific anti-CD79b antibody; also called 11G10.9.01) VH: QVQLVQSGAEVKKPGASVKVSCKASGYTFTDYWVNWVRQAPGQGLEWMGMIDPSDSETHYNQMFNDRVTMTVDTSTSTVYMELSSLRSEDTAVYYCTRSNYYWGQGTLVTVSS VL: DIVMTQTPLSLSVTPGQPASISCKSSQSLLDSEGKTYLNWLLQKPGQSPQSLIYLVSKLDSGVPDRFSGSGSGTDFTLKISRVEAEDVGVYYCWQGTHFPLTFGGGTKVEIK
~3	1.84	~4	1.84	–	A7v14b (antibody, V domains shown, also called CD79b.A7v14b) VH: EVQLVQSGAEVKKPGASVKVSCKASGYTFTTYYMNWVRQAPGQGLEWIGMIDPSDSETHYNQKFQGRATLTVDTSTSTAYLELSSLRSEDTAVYYCSRSLAFWGQGTLVTVSS VL: DIVMTQTPLSLPVTPGQPASISCKSSQSLLDSDGKTYLNWLLQKPGQSPQSLIYLVSKLDSGVPDRFSGSGSGTDFTLKISRVEAEDVGVYYCWQGTHFPQTFGQGTKVEIK
~10	2.53	~20	–	–	hz34F1.14 (antibody, V domains shown) VH: QVQLVQSGAEVKKPGASVKVSCKASGYSFTTYWMNWVRQAPGQGLTWMGMIDPSDSETHYNHLFKDRVTMTVDKSTSTAYMELSSLRSEDTAVYYCTRAIGYWGQGTLVTVSS VL: DVVMTQSPLSLPVTLGQPASISCKSSLSLLDSEGKTYLNWFQQRPGQSPRPLISLVSKLDSGVPDRFSGSGSGTDFTLKISRVEAEDVGVYYCWQGTHFPLTFGGGTKVEIK
~2	0.274	~2	–	–	hz38D9B3.11 (antibody, V domains shown, Humanized monospecific anti-CD79b antibody) VH: QVQLVQSGSELKKPGASVKVSCKASGYTFTDYSMHWVRQAPGQGLEWMGWINTETGEPSYADDFKGRFVFSLDTSVSTAYLQISSLKAEDTAVYYCYYGPYWGQGTLVTVSS VL: EIVLTQSPATLSLSPGERATLSCKASQSVDHDVDSYMDWYQQKPGQAPRLLIYSASNLESGIPARFSGSGSGTDFTLTISSLEPEDFAVYYCQQINEYPYTFGGGTKVEIK
~2	12.7	~3	12.7	13.7	polmab (antibody, human IgG1, kappa, V domains shown) VH: EVQLVESGGGLVQPGGSLRLSCAASGYTFSSYWIEWVRQAPGKGLEWIGEILPGGGDTNYNEIFKGRATFSADTSKNTAYLQMNSLRAEDTAVYYCTRRVPIRLDYWGQGTLVTVSS VL: DIQLTQSPSSLSASVGDRVTITCKASQSVDYEGDSFLNWYQQKPGKAPKLLIYAASNLESGVPSRFSGSGSGTDFTLTISSLQPEDFATYYCQQSNEDPLTFGQGTKVEIKR
